The record followed here is the supplement of paper PMC11246515.

± gives the standard deviation of the averaged measurements.

A short description of the data set: total protein half-life in vivo (active degradation + dilution); higher = more stable protein.
Setting [1] is: E. coli NCM3722 delta-clpP, growth: N-lim chemostat, doubling time 6 h.
Setting [2] is: E. coli NCM3722 delta-hslV, growth: N-lim chemostat, doubling time 6 h.
Setting [3] is: E. coli NCM3722 delta-lon, growth: N-lim chemostat, doubling time 6 h.
Setting [4] is: E. coli NCM3722 delta-smpB, growth: N-lim chemostat, doubling time 6 h.
Where [5] appears, read: wild type E. coli NCM3722, growth: C-lim chemostat, doubling time 3 h.
The mark [6] stands for this setting: wild type E. coli NCM3722, growth: C-lim chemostat, doubling time 6 h.
The mark [7] stands for this setting: wild type E. coli NCM3722, growth: C-lim chemostat, doubling time 12 h.
[8] abbreviates: wild type E. coli NCM3722, growth: N-lim chemostat, doubling time 6 h.
Setting [9] is: wild type E. coli NCM3722, growth: N-lim chemostat, doubling time 12 h.
The mark [10] stands for this setting: wild type E. coli NCM3722, growth: P-lim chemostat, doubling time 6 h.
Setting [11] is: wild type E. coli NCM3722, growth: P-lim chemostat, doubling time 12 h.
[12] abbreviates: E. coli NCM3722 delta-clpP delta-lon delta-hslV, growth: N-lim chemostat, doubling time 6 h.

As for “MARRILVVEDEAPIREMVCFVLEQNGFQPVEAEDYDSAVNQLNEPWPDLILLDWMLPGGSGIQFIKHLKRESMTRDIPVVMLTARGEEEDRVRGLETGADDYITKPFSPKELVARIKAVMRRISPMAVEEVIEMQGLSLDPTSHRVMAGEEPLEMGPTEFKLLHFFMTHPERVYSREQLLNHVWGTNVYVEDRTVDVHIRRLRKALEPGGHDRMVQTVRGTGYRFSTRF [P0AFJ5]”, the “total protein half-life in vivo” value came out at 4.76 ± 0.81 h under setting [1]; 3.79 ± 1.1 h under setting [2]; 5.36 ± 0.14 h under setting [3]; 4.52 ± 0.53 h under setting [4]; 2.93 ± 0.28 h under setting [5]; 5.33 ± 0.14 h under setting [6]. In addition, the “total protein half-life in vivo” value reads like this: under setting [7], 8.01 ± 1.2 h; under setting [8], 4.51 ± 0.3 h; under setting [9], 8.09 h; under setting [10], 6.11 ± 1 h; under setting [11], 11.3 ± 0.5 h.

On to “MNNTPRYPQRVRNDLRFRELTVLRVERISAGFQRIVLGGEALDGFTSRGFDDHSKLFFPQPDAHFVPPTVTEEGIVWPEGPRPPSRDYTPLYDELRHELAIDFFIHDGGVASGWAMQAQPGDKLTVAGPRGSLVVPEDYAYQLYVCDESGMPALRRRLETLSKLAVKPQVSALVSVRDNACQDYLAHLDGFNIEWLAHDEQAVDARLAQMQIPADDYFIWITGEGKVVKNLSRRFEAEQYDPQRVRAAAYWHAK”, for which the “total protein half-life in vivo” value turned out to be 4.98 ± 0.54 h under setting [12]; 3.77 ± 0.45 h under setting [1]; 4.7 ± 0.13 h under setting [2]; 5.34 ± 0.58 h under setting [3]; 4.11 ± 1.2 h under setting [4]; 3.36 ± 0.12 h under setting [5]. The “total protein half-life in vivo” value reads like this: under setting [6], 6.21 ± 1.1 h; under setting [7], 9.46 ± 0.69 h; under setting [8], 4.38 ± 0.69 h; under setting [9], 7.07 h; under setting [10], 5.663 ± 0.053 h; under setting [11], 12.1 ± 0.45 h.

On to “MSRLVVVSNRIAPPDEHAASAGGLAVGILGALKAAGGLWFGWSGETGNEDQPLKKVKKGNITWASFNLSEQDLDEYYNQFSNAVLWPAFHYRLDLVQFQRPAWDGYLRVNALLADKLLPLLQDDDIIWIHDYHLLPFAHELRKRGVNNRIGFFLHIPFPTPEIFNALPTYDTLLEQLCDYDLLGFQTENDRLAFLDCLSNLTRVTTRSAKSHTAWGKAFRTEVYPIGIEPKEIAKQAAGPLPPKLAQLKAELKNVQNIFSVERLDYSKGLPERFLAYEALLEKYPQHHGKIRYTQIAPTSRGDVQAYQDIRHQLENEAGRINGKYGQLGWTPLYYLNQHFDRKLLMKIFRYSDVGLVTPLRDGMNLVAKEYVAAQDPANPGVLVLSQFAGAANELTSALIVNPYDRDEVAAALDRALTMSLAERISRHAEMLDVIVKNDINHWQECFISDLKQIVPRSAESQQRDKVATFPKLA”, for which the “total protein half-life in vivo” value reads like this: under setting [12], 5.02 ± 0.71 h; under setting [1], 4.68 ± 0.38 h; under setting [2], 2.95 ± 0.046 h; under setting [3], 3.23 ± 0.4 h; under setting [4], 2.85 ± 0.093 h; under setting [5], 2.4 ± 0.054 h. For the same sequence, the “total protein half-life in vivo” value under setting [6] stood at 3.858 ± 0.033 h; the “total protein half-life in vivo” value under setting [7] worked out at 6.061 ± 0.06 h; the “total protein half-life in vivo” value under setting [8] amounted to 3.02 ± 0.29 h; the “total protein half-life in vivo” value under setting [9] came out at 4.47 ± 0.49 h; the “total protein half-life in vivo” value under setting [10] turned out to be 3.72 ± 0.24 h; the “total protein half-life in vivo” value under setting [11] turned out to be 6.83 ± 0.3 h.

Regarding “MNIYTFDFDEIESQEDFYRDFSQTFGLAKDKVRDLDSLWDVLMNDVLPLPLEIEFVHLGEKTRRRFGALILLFDEAEEELEGHLRFNVRH”, the “total protein half-life in vivo” value worked out at 4.37 ± 1.1 h under setting [12]; 3.85 h under setting [1]; 5.5 h under setting [2]; 7.32 h under setting [3]; 4.41 ± 0.68 h under setting [4]; 2.87 h under setting [5]. In addition, the “total protein half-life in vivo” value reads like this: under setting [6], 5.2 h; under setting [7], 9.22 ± 0.45 h; under setting [8], 4.83 ± 0.14 h; under setting [9], 10.2 h; under setting [10], 4.26 h; under setting [11], 10.1 ± 1.3 h.

Consider “MNVFNPAQFRAQFPALQDAGVYLDSAATALKPEAVVEATQQFYSLSAGNVHRSQFAEAQRLTARYEAAREKVAQLLNAPDDKTIVWTRGTTESINMVAQCYARPRLQPGDEIIVSVAEHHANLVPWLMVAQQTGAKVVKLPLNAQRLPDVDLLPELITPRSRILALGQMSNVTGGCPDLARAITFAHSAGMVVMVDGAQGAVHFPADVQQLDIDFYAFSGHKLYGPTGIGVLYGKSELLEAMSPWLGGGKMVHEVSFDGFTTQSAPWKLEAGTPNVAGVIGLSAALEWLADYDINQAESWSRSLATLAEDALAKRPGFRSFRCQDSSLLAFDFAGVHHSDMVTLLAEYGIALRAGQHCAQPLLAELGVTGTLRASFAPYNTKSDVDALVNAVDRALELLVD”, for which the “total protein half-life in vivo” value came to 4.06 ± 0.23 h under setting [12]; 3.13 ± 0.13 h under setting [1]; 3.71 ± 0.079 h under setting [2]; 4.38 ± 0.57 h under setting [3]; 3.52 ± 0.088 h under setting [4]; 2.97 ± 0.082 h under setting [5]. For the same sequence, the “total protein half-life in vivo” value was found to be 5.59 ± 0.13 h under setting [6]; 10.8 ± 2.4 h under setting [7]; 4.11 ± 0.22 h under setting [8]; 6.8 ± 0.74 h under setting [9]; 5.86 ± 0.26 h under setting [10]; 13.3 ± 3.4 h under setting [11].

On to “MLRLLEEKIATPLGPLWVICDEQFRLRAVEWEEYSERMVQLLDIHYRKEGYERISATNPGGLSDKLREYFAGNLSIIDTLPTATGGTPFQREVWKTLRTIPCGQVMHYGQLAEQLGRPGAARAVGAANGSNPISIVVPCHRVIGRNGTMTGYAGGVQRKEWLLRHEGYLLL [P0AFH0]”, for which the “total protein half-life in vivo” value came out at 5.81 ± 0.46 h under setting [12]; 4.8 ± 0.28 h under setting [1]; 6.05 ± 1.3 h under setting [2]; 3.86 ± 0.21 h under setting [4]; 2.61 h under setting [5]; 5.29 ± 0.24 h under setting [6]. Moreover, the “total protein half-life in vivo” value reads like this: under setting [7], 10.4 ± 0.61 h; under setting [8], 4.55 ± 0.71 h; under setting [9], 7.793 ± 0.026 h; under setting [10], 5.07 ± 0.087 h; under setting [11], 8.9 ± 0.66 h.

For “MDTSLAEEVQQTMATLAPNRFFFMSPYRSFTTSGCFARFDEPAVNGDSPDSPFQQKLAALFADAKAQGIKNPVMVGAIPFDPRQPSSLYIPESWQSFSRQEKQASARRFTRSQSLNVVERQAIPEQTTFEQMVARAAALTATPQVDKVVLSRLIDITTDAAIDSGVLLERLIAQNPVSYNFHVPLADGGVLLGASPELLLRKDGERFSSIPLAGSARRQPDEVLDREAGNRLLASEKDRHEHELVTQAMKEVLRERSSELHVPSSPQLITTPTLWHLATPFEGKANSQENALTLACLLHPTPALSGFPHQAATQVIAELEPFDRELFGGIVGWCDSEGNGEWVVTIRCAKLRENQVRLFAGAGIVPASSPLGEWRETGVKLSTMLNVFGLH [P0AEJ2]”, the “total protein half-life in vivo” value under setting [5] worked out at 2.43 h and the “total protein half-life in vivo” value under setting [6] is 2.54 h.

As to “MKRFSLAILALVVATGAQAASEKVEMNLVTSQGVGQSIGSVTITETDKGLEFSPDLKALPPGEHGFHIHAKGSCQPATKDGKASAAESAGGHLDPQNTGKHEGPEGAGHLGDLPALVVNNDGKATDAVIAPRLKSLDEIKDKALMVHVGGDNMSDQPKPLGGGGERYACGVIK [P0AGD1]”, the “total protein half-life in vivo” value by setting is: under setting [12], 5.72 ± 1.6 h; under setting [1], 6.84 ± 0.29 h; under setting [2], 6.36 ± 0.53 h; under setting [3], 6.86 ± 0.16 h; under setting [4], 5.11 ± 0.17 h; under setting [5], 2.81 ± 0.45 h. Also, the “total protein half-life in vivo” value was 6.27 ± 0.81 h under setting [6]; 10 ± 1.8 h under setting [7]; 6.57 ± 0.63 h under setting [8]; 11.8 ± 1.3 h under setting [9]; 5.69 ± 0.66 h under setting [10]; 11 ± 0.99 h under setting [11].

Take “MRTVKVFEEAWPLHTPFVIARGSRSEARVVVVELEEEGIKGTGECTPYPRYGESDASVMAQIMSVVPQLEKGLTREELQKILPAGAARNALDCALWDLAARRQQQSLADLIGITLPETVITAQTVVIGTPDQMANSASTLWQAGAKLLKVKLDNHLISERMVAIRTAVPDATLIVDANESWRAEGLAARCQLLADLGVAMLEQPLPAQDDAALENFIHPLPICADESCHTRSNLKALKGRYEMVNIKLDKTGGLTEALALATEARAQGFSLMLGCMLCTSRAISAALPLVPQVSFADLDGPTWLAVDVEPALQFTTGELHL”: the “total protein half-life in vivo” value was 5.93 ± 1.4 h under setting [3]; 4.33 ± 0.052 h under setting [4]; 2.73 ± 0.18 h under setting [5]; 6.31 ± 1.1 h under setting [6]; 9.313 ± 0.054 h under setting [7]; 4.81 ± 0.22 h under setting [8]. Moreover, the “total protein half-life in vivo” value runs as follows: under setting [9], 11.2 ± 2.8 h; under setting [10], 5.54 ± 0.5 h; under setting [11], 12.119 ± 0.011 h.
